Source: patent US20220194999A1 (Janssen / Centocor, published 2022)

Target: T1, HLA-A*02:01 class I complex (conditional p*HLA*02:01, biotinylated heavy chain with beta2-microglobulin) (human, biotinylated heavy chain)
T1 construct: UV-labile peptide p* is cleaved and exchanged for the test peptide; also called HLA 2.1
Test: UV peptide exchange, HLA class I ELISA, % of Pos peptide;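 for Average %: Streptavidin-captured HLA complexes after exchange detected via HRP anti-human B2M antibody, absorbance read, colour scales with intact complex, normalized to exchange control peptide as 100%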;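 for Exch I (%): Streptavidin-captured HLA complexes after exchange detected via HRP anti-human B2M antibody, absorbance read, colour scales with intact complex, normalized to exchange control peptide as 100%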;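 for Exch II (%): Streptavidin-captured HLA complexes after exchange detected via HRP anti-human B2M antibody, absorbance read, colour scales with intact complex, normalized to exchange control peptide as 100%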
Source text: (§1) The HLA class I ELISA is an enzyme immunoassay based on the detection of beta2-microglobulin (B2M) of (peptide-stabilized) HLA class I complexes. To this end streptavidin is bound onto polystyrene microtiter wells. After washing and blocking, HLA complex present in exchange reaction mixtures or ELISA controls is captured by the streptavidin on the microtiter plate via its biotinylated heavy chain. Non-bound material is removed by washing. Subsequently, horseradish peroxidase (HRP)-conjugated antibody to human B2M is added. […] In the latter case B2M is removed during the washing step. After removal of non-bound HRP conjugate by washing, a substrate solution is added to the wells. A colored product is formed in proportion to the amount of intact HLA complex present in the samples. After the reaction has been terminated by the addition of a stop solution, absorbance is measured in a microtiter plate reader. The absorbance is normalized to the absorbance of an exchange control peptide (represents 100%). Also, suboptimal HLA binding of peptides with a moderate to low affinity for HLA class I molecules can be detected by this ELISA technique
(§2) Coating wells of two NUNC MaxiSorp™ 96-well ELISA plates: only the contents of one coating buffer capsule were dissolved in 100 mL of distilled water (0.05 M carbonate-bicarbonate buffer, pH 9.6 at 25° C.). 46 μL of Streptavidin stock solution were added to 23 mL coating buffer. 100 μL of the Streptavidin stock solution were added to all wells. Each microtiter plate was covered with an adhesive seal and incubated overnight at room temperature (18-25° C.).

Binder | Average % [%] | Exch I (%) | Exch II (%)
AMNNMFCQV (also called M162) [TP53_K132N6 mimic peptide AMNNMFCQV] | 70.1 | 69.4 | 70.8
ILNREIDFV (also called M091) [PIK3CA_G118D5 mimic peptide ILNREIDFV] | 70.4 | 62.1 | 78.7
IMNREIDFV (also called M092) [PIK3CA_G118D6 mimic peptide IMNREIDFV] | 66.7 | 68.6 | 64.9
ILNREIDFL (also called M093) [PIK3CA_G118D9 mimic peptide ILNREIDFL] | 56.2 | 51.1 | 61.3
QLWVDSTPI (also called M181) [TP53_P152L3 mimic peptide QLWVDSTPI] | 67.9 | 62 | 73.8
QLWVDSTPV (also called M182) [TP53_P152L4 mimic peptide QLWVDSTPV] | 95.7 | 95.6 | 95.7
SMTCTYFPL (also called M211) [TP53_S127F11 mimic peptide SMTCTYFPL] | 53.5 | 56.4 | 50.6
GLAPPQLLV (also called M141) [TP53_H193L5 mimic peptide GLAPPQLLV] | 42.2 | 40.3 | 44.1
GMAPPQYLV (also called M152) [TP53_H193Y6 mimic peptide GMAPPQYLV] | 21.4 | 22.5 | 20.3
GLAPPQYLV (also called M151) [TP53_H193Y5 mimic peptide GLAPPQYLV] | 48.2 | 48.8 | 47.6
YLDCGIHSL (also called M034) [CTNNB1.S33C9 mimic peptide YLDCGIHSL] | 107 | 103 | 111
YMDCGIHSL (also called M021) [CTNNB1_S33C10 mimic peptide YMDCGIHSL] | 106 | 108 | 103
YMDCGIHSV (also called M023) [CTNNB1_S33C6 mimic peptide YMDCGIHSV] | 108 | 101 | 115
CYLYYYSYLV (also called M102) [PTEN R173C6 mimic peptide CYLYYYSYLV] | 10.7 | 10.4 | 10.9
CYMYYYSYLL (also called M104) [PTEN.R173C3 mimic peptide CYMYYYSYLL] | 8.5 | 8.3 | 8.7
CYLYYYSYLI (also called M105) [PTEN.R173C10 mimic peptide CYLYYYSYLI] | 23.3 | 27.8 | 18.9
VMSDAISAL (also called M124; SOX17.S40317) [SOX17.S403I7 mimic peptide VMSDAISAL] | 77.4 | 75.3 | 79.5
VMSDAISAV (also called M122; SOX17_S40313) [SOX17_S403I3 mimic peptide VMSDAISAV] | 92.4 | 96.9 | 87.9
VVSDAISAV (also called M120; SOX17.S4031) [SOX17.S403I mutant peptide VVSDAISAV] | 86.2 | 88.5 | 83.8
VLSDAISAL (also called M123; SOX17_S40316) [SOX17_S403I6 mimic peptide VLSDAISAL] | 87.3 | 91.9 | 82.6
LLGRNSFEL (also called M221) [TP53_V272M2 mimic peptide LLGRNSFEL] | 98.4 | 101 | 95.7
LLGRNSFEI (also called M222) [TP53_V272M3 mimic peptide LLGRNSFEI] | 66.7 | 75.3 | 58

Binder | Average % [%] | Exch I (%) | Exch II (%)
NMDEYVHNV (also called M111) [SF3B1_R625H5 mimic peptide NMDEYVHNV] | 83.6 | 86.6 | 80.6
NMDEYVHNI (also called M115) [SF3B1.R625H13 mimic peptide NMDEYVHNI] | 68.4 | 73.6 | 63.1
NLDEYVHNV (also called M112) [SF3B1_R625H6 mimic peptide NLDEYVHNV] | 88.2 | 88.1 | 88.4
NLDEYVHNI (also called M116) [SF3B1.R625H14 mimic peptide NLDEYVHNI] | 70.1 | 71.1 | 69
NLDEYVHNL (also called M114) [SF3B1.R625H10 mimic peptide NLDEYVHNL] | 55.1 | 57.2 | 53
KLYPVQLWI (also called M134) [TP53.C141Y12 mimic peptide KLYPVQLWI] | 73.9 | 81.3 | 66.4
KMYPVQLWV (also called M132) [TP53_C141Y3 mimic peptide KMYPVQLWV] | 76.9 | 72.7 | 81
LVVVGAAGV (also called M050) [KRAS.G12A mutant peptide LVVVGAAGV] | 6.4 | 6.6 | 6.2
LLVVGAVGV (also called M071) [KRAS_G12V2 mimic peptide LLVVGAVGV] | 35.9 | 31.8 | 40.1
LMVVGAVGV (also called M072) [KRAS_G12V3 mimic peptide LMVVGAVGV] | 36.1 | 39 | 33.3
LLVVGACGV (also called M061) [KRAS_G12C2 mimic peptide LLVVGACGV] | 34.8 | 36.4 | 33.1
LMVVGAAGV (also called M052) [KRAS_G12A3 mimic peptide LMVVGAAGV] | 51.3 | 51 | 51.5
MIFSKRHWA (also called M010) [CIC.R215W mutant peptide MIFSKRHWA] | 6.2 | 6.2 | 6.1
GLKDLLNPV (also called M081) [PIK3CA_E453K5 mimic peptide GLKDLLNPV] | 74.9 | 73.5 | 76.3
GMKDLLNPV (also called M082) [PIK3CA_E453K6 mimic peptide GMKDLLNPV] | 77.5 | 74.7 | 80.4
MMFSKRHWV (also called M013) [CIC_R215W7 mimic peptide MMFSKRHWV] | 74.4 | 76.2 | 72.6
MMFSKRHWI (also called M011) [CIC_R215W15 mimic peptide MMFSKRHWI] | 42.8 | 40.4 | 45.3
MLFSKRHWV (also called M012) [CIC_R215W6 mimic peptide MLFSKRHWV] | 74.3 | 74.8 | 73.8
RLIHRDLAV (also called M242) [ERBB2_V842I5 mimic peptide RLIHRDLAV] | 73.6 | 69.9 | 77.3
RMIHRDLAL (also called M241; ERBB2_V842110) [ERBB2_V842I10 mimic peptide RMIHRDLAL] | 53.7 | 51.5 | 55.8
RMIHRDLAV (also called M243; ERBB2_V84216) [ERBB2_V842I6 mimic peptide RMIHRDLAV] | 57.6 | 56.7 | 58.5

Target: T1, HLA-A*02:01 class I complex …
Test: as above
Remark: another data set of the same source
Source text: as §1, §2

Binder | average relative binding (%)
YLDCGIHSL (also called M034) [CTNNB1.S33C9 mimic peptide YLDCGIHSL] | > 100
YMDCGIHSL (also called M021) [CTNNB1_S33C10 mimic peptide YMDCGIHSL] | > 100
YMDCGIHSV (also called M023) [CTNNB1_S33C6 mimic peptide YMDCGIHSV] | > 100
CYLYYYSYLV (also called M102) [PTEN R173C6 mimic peptide CYLYYYSYLV] | < 15
CYMYYYSYLL (also called M104) [PTEN.R173C3 mimic peptide CYMYYYSYLL] | < 15
LVVVGAAGV (also called M050) [KRAS.G12A mutant peptide LVVVGAAGV] | < 15
MIFSKRHWA (also called M010) [CIC.R215W mutant peptide MIFSKRHWA] | < 15
